How the values were obtained:
[1] = target: Microtubules polymerized from bovine brain tubulin (bovine) (UniProt Q6B856); test: single-molecule TIRF microscopy (dwell times); spiking: 5 nM 647-SSNA1 with 1 µM 488-SSNA1 on surface-bound GMPCPP-stabilized microtubule seeds; 5-10 min after SSNA1 addition; 5 fps; 35°C
[2] = target: Microtubules polymerized from bovine brain tubulin (bovine) (UniProt Q6B856); test: single-molecule TIRF microscopy (dwell times); spiking: 5 nM 647-SSNA1 with 1 µM 488-SSNA1 on surface-bound GMPCPP-stabilized microtubule seeds; 0-5 min after SSNA1 addition; 5 fps; 35°C
[3] = target: Microtubules polymerized from bovine brain tubulin (bovine) (UniProt Q6B856); test: single-molecule TIRF microscopy (dwell times); 5 nM 647-SSNA1 (100% labeled) alone on surface-bound GMPCPP-stabilized microtubule seeds; 0-5 min after SSNA1 addition; 5 fps; 35°C
[4] = target: Microtubules polymerized from bovine brain tubulin (bovine) (UniProt Q6B856); test: TIRF microscopy; dynamic microtubules grown from GMPCPP seeds with 9 µM tubulin and 5 µM 488-SSNA1 (7% labeled), imaged 60 min; SSNA1 intensity at the microtubule end region; 35°C
[5] = target: Microtubules polymerized from bovine brain tubulin (bovine) (UniProt Q6B856); test: single-molecule TIRF microscopy (dwell times); 5 nM 647-SSNA1 (100% labeled) alone on surface-bound GMPCPP-stabilized microtubule seeds; 5-10 min after SSNA1 addition; 5 fps; 35°C

- association rate (events µm^–1 nM^–1 s^–1) [1]: 0.0024
- mean single-molecule dwell time [1]: 39 s
- association rate (events µm^–1 nM^–1 s^–1) [2]: 0.00096
- mean single-molecule dwell time [2]: 19 s
- mean single-molecule dwell time [3]: 12 s
- SSNA1 fluorescence intensity at the microtubule end region, 3 min [4]: 0.33 a.u.
- mean single-molecule dwell time [5]: 10 s
Substance: Human 6His-SSNA1 (Sjögren's syndrome nuclear autoantigen-1) (from UniProt O43805 1-119) (natural protein)
